In paper PMC8173005:

Experiments:
[1] = molecular target: staphylococcal protein A ligand of the BabyBio A column (Bio-Works) (staphylococcal (so in the source)); assay: affinity chromatography; dynamic binding capacity at 10% breakthrough; 1 mL columns of peptide-coupled agarose or BabyBio A; 1 mg/mL infliximab in 0.01% PBST pH 7.4 loaded at 0.5 mL/min; elution with 20 mM glycine-HCl pH 3.0 (peptide resins) or 100 mM Na-citrate pH 3.0 (BabyBio A)
[2] = molecular target: polyclonal human IgG (Octagam, Octapharma) (human); assay: ELISA; phage ELISA; MaxiSorp wells coated with human polyclonal IgG (Octagam, 5 µg/mL), blocked with skimmed milk; peptide-displaying phagemid virions in solution, 2 × 10^9 virions per well or serial dilutions from 2.5 × 10^10 to 1.95 × 10^8 virions per well; detection with HRP-conjugated anti-M13 antibody and TMB; triplicate

Molecule	amount of infliximab in the eluate [1]	dynamic binding capacity at 10% breakthrough [1]	fold higher estimated affinity than the parent peptide min19Fc-Q6D [2]
infliximab (Remsima, Celltrion) (antibody)	41.2 mg	41.3 mg/mL	–
GSYWYNVWF [peptide A displayed on pIT2-SL phagemid virions]	–	–	16 fold
